Results: article PMC9321131
Where two headings read alike, the source gives them in different places.

T1: rPvSPL2 (GST-PvSPL2) (Panicum virgatum, UniProt A0A8T0WHV5 1-470)
T1 sequence: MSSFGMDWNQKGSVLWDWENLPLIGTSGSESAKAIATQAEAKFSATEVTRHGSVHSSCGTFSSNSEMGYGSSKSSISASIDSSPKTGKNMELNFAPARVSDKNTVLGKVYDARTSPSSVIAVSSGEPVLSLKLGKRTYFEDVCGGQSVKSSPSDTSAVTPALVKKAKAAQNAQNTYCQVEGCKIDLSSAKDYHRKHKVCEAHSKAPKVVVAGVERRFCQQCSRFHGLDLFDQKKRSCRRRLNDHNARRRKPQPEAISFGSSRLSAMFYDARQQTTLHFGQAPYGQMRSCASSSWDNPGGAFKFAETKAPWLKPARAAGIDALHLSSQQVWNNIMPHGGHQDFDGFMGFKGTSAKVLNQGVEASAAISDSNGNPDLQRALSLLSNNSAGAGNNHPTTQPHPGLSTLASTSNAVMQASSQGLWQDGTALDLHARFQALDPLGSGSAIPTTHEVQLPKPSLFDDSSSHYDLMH


Key:
rPvSPL2 (GST-PvSPL2) [1] = target: T1, rPvSPL2 (GST-PvSPL2); test: EMSA
rPvSPL2 (GST-PvSPL2) [2] = target: T1, rPvSPL2 (GST-PvSPL2); test: EMSA; remark: listed apart in the source

Row | Binder | binding result (rPvSPL2 (GST-PvSPL2) [1]) | binding result (rPvSPL2 (GST-PvSPL2) [2])
1 | PvLBO promoter probe 1 (site 1) (dsDNA) DNA 1: CCCCCCAAACGTACTATTTACTAT DNA 2: ATAGTAAATAGTACGTTTGGGGGG | binds | –
2 | PvLBO promoter probe 2 (site 2) (dsDNA) DNA 1: TACAATATTTGTACTGTCATAATA DNA 2: TATTATGACAGTACAAATATTGTA | – | binds
